We go through three proteins from PMC8431961 (Science (New York, N.Y.), 2021).

B1: MmPNMA3 (natural protein, mouse, UniProt Q8JZW8 1-466, looked up)
chain: MPLNLLQDWCRGEHLNTQRSMLILGIPEDCSEDEFEETLHEALKHLGRYRIIGRMFRREENAQAFLVELARDFDYALVPREIEGKGGPWEVVVKPPHSDDEFLNRLNHFLEEERRTVSDMNRVLGTHSNHSPTKTTISADFWVWAQTLGAVMQPLLEQMLYRELRVFSGNTISIPGLLAFDSWLEHTTEMLQMWQVPEVEKRRRLMECLRGPALQVVNVLRANNAAITVKECLEALRQVFGSVDNRKIAQLKFCKAYQEPGEKVSSFVVRLETLLQKALEKNAISRKNVNQTRLKRILGGAILSAKLREKLKMLKQRRRPPGFLALVKLFREEEEEWEATRGSERSCYEGLELGPSPSNIGSEERELFVPAFGSVLEERPYQGSRRRRHRRRGQHRKGGVPRDDSQGTRKQNYDTFCYSCGEDGHIRVHCFNPSNRTLVKQKRQAAMEKGNRSWAWEKSHPKPKTK
B2: MmPNMA5 (natural protein, mouse, UniProt Q5DTT8 1-618, looked up)
chain: MAVALLDDWCKGMDLDPKKAVLIVGIPVQYTEAAINDALKEGLPPLCAYKVIGRMFRREDEAKAVLIELPEVVDYTMMPTHIPAEGGAWEVVVKPRSPDDEFMNKLIYFLRDEGRRIVDVAKALGFSTVPTGKIELKNLDQDKPKGLKSLCNNSTCYKKLKVFSGSPFPGPGEESFETWLEEVTELMQLWQVSEREKKQCLLESLRGSALSIMQALWTSNDSLTVEQCLKALKHIFGNKEDSKVLQFRFLQSSQKPAEKVSDYLLRLEPLLQKAVQQSPLSAHSADSIRLKHVLSQVSMTTGLRGKLSLLDQQGCPPTFLELMKLTRDEEEWESTVVVEEQEQVRRDSSACEAANEVVTQAEDSREVSTQTTGEEMTSVKRRRLLWRHSAGEEGQRKESGFWAESEPDEQKPYVRAQESGNERGAWAVSHPNPKEIEAQDSQEFLPVAGNRDTLTKSWGSPDKGTGDMSVAEGQQGQGKAPNFLLARNDPNKQEQIPHSSVTTKWQDRGECQRLKWGASMITRPQGNPDRSWDTSGSQDGEDGCSELRMPTGTEAAQGVEEPATGLSWAEDTSAWEQARLGRETVPRRGGRRIQPVFRIIYTALGEPHEGSTLESFRE
B3: MmMOAP1 (natural protein, mouse, UniProt Q9ERH6 1-352, looked up)
chain: MTLRLLEDWCRGMDMNPRKALLVAGIPPTCGVADIEEALQAGLAPLGEHRLLGRMFRRDENKNVALIGLTVETGSALVPKEIPAKGGVWRVIFKPPDTDSDFLCRLNEFLKGEGMTMGELTRVLGNRNDPLGLDPGIMIPEIRAPMLAQALNEALKPTLQYLRYKKLSVFSGRDPPGPGEEEFESWMFHTSQVMKTWQVSDVEKRRRLIESLRGPAFEIIRVLKINNPFITVAECLKTLETIFGIIDNPRALQVKYLTTYQKTDEKLSAYVLRLEPLLQKLVQKGAIEKEVVNQARLDQVIAGAVHKSVRRELGLPEGSPAPGLLQLLTLIKDKEAEEEEVLLQAELEGYCT

This data set concerns the molecule itself. The data set is described as follows: SEC + other: electron microscopy.
For B1, the binding result was “binds”.
Next, B2: “binds”.
In the case of B3, the binding result is “binds”.
